{"source": "paper PMC12212138", "about": "“Crystal structure and mutagenesis of a nucleic acid–binding BRCT domain in human PARP4”", "binders": {"B1": {"name": "vtRNA1-3 (structured_RNA)", "RNA": "GGCUGGCUUUAGCUCAGCGGUUACUUCGCGUGUCAUCAAACCACCUCUCUGGGUUGUUCGAGACCCGCGGGCGCUCUCCAGCCCUCUU"}}, "settings_in_all_cases": "protein: recombinant; tags: N-terminal His-SUMO removed by TEV; label: 5'-6-FAM; predicted intramolecular fold", "key": {"[1]": {"molecular_target": "T1, PARP4 BRCT-WGR-CAT WT (human, UniProt Q9UKK3 1-573)", "T1 sequence": "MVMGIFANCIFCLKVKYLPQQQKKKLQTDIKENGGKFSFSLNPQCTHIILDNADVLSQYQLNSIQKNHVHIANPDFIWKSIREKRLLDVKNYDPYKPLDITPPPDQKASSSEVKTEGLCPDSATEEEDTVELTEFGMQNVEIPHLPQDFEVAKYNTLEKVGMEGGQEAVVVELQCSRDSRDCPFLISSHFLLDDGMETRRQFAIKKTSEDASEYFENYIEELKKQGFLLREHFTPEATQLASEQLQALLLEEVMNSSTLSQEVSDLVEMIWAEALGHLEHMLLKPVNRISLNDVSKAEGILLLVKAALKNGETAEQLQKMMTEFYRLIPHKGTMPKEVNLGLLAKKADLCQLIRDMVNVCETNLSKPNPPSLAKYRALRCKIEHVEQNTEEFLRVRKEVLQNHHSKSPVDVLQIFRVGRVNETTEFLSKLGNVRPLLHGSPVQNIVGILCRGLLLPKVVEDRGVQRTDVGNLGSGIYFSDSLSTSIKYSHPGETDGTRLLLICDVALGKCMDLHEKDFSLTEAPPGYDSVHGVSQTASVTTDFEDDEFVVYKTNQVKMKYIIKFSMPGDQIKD", "assay": "FP; 3 or 15 nM probe; FP: 50 mM Tris pH 7.5, 50 mM NaCl, 1 mM MgCl2, 0.05% NP40, 2 mM DTT, 5% glycerol, 25 ug/ml BSA, room temp 30 min; EMSA: 50 mM Tris pH 7.5, 50 mM NaCl, 4% Ficoll PM400, 0.05% NP40, 2 mM DTT, 0-18 uM protein, room temp 30 min, gel at 4 C"}, "[2]": {"molecular_target": "T2, PARP4 BRCT WT (human, UniProt Q9UKK3 1-100)", "T2 sequence": "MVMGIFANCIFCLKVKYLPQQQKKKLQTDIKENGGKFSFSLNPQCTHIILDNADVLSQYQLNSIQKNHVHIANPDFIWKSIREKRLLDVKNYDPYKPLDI", "assay": "EMSA; 20 nM probe; FP: 50 mM Tris pH 7.5, 50 mM NaCl, 1 mM MgCl2, 0.05% NP40, 2 mM DTT, 5% glycerol, 25 ug/ml BSA, room temp 30 min; EMSA: 50 mM Tris pH 7.5, 50 mM NaCl, 4% Ficoll PM400, 0.05% NP40, 2 mM DTT, 0-18 uM protein, room temp 30 min, gel at 4 C"}, "[3]": {"molecular_target": "T1, PARP4 BRCT-WGR-CAT WT", "assay": "EMSA; 20 nM probe; FP: 50 mM Tris pH 7.5, 50 mM NaCl, 1 mM MgCl2, 0.05% NP40, 2 mM DTT, 5% glycerol, 25 ug/ml BSA, room temp 30 min; EMSA: 50 mM Tris pH 7.5, 50 mM NaCl, 4% Ficoll PM400, 0.05% NP40, 2 mM DTT, 0-18 uM protein, room temp 30 min, gel at 4 C"}, "[4]": {"molecular_target": "T3, PARP4 BRCT K31Q (human, UniProt Q9UKK3 1-100, K31Q)", "T3 sequence": "T2 sequence with K31Q", "assay": "EMSA; 20 nM probe; FP: 50 mM Tris pH 7.5, 50 mM NaCl, 1 mM MgCl2, 0.05% NP40, 2 mM DTT, 5% glycerol, 25 ug/ml BSA, room temp 30 min; EMSA: 50 mM Tris pH 7.5, 50 mM NaCl, 4% Ficoll PM400, 0.05% NP40, 2 mM DTT, 0-18 uM protein, room temp 30 min, gel at 4 C"}, "[5]": {"molecular_target": "T4, PARP4 BRCT F39Q (human, UniProt Q9UKK3 1-100, F39Q)", "T4 sequence": "T2 sequence with F39Q", "assay": "EMSA; 20 nM probe; FP: 50 mM Tris pH 7.5, 50 mM NaCl, 1 mM MgCl2, 0.05% NP40, 2 mM DTT, 5% glycerol, 25 ug/ml BSA, room temp 30 min; EMSA: 50 mM Tris pH 7.5, 50 mM NaCl, 4% Ficoll PM400, 0.05% NP40, 2 mM DTT, 0-18 uM protein, room temp 30 min, gel at 4 C"}, "[6]": {"molecular_target": "T5, PARP4 BRCT F39A (human, UniProt Q9UKK3 1-100, F39A)", "T5 sequence": "T2 sequence with F39A", "assay": "EMSA; 20 nM probe; FP: 50 mM Tris pH 7.5, 50 mM NaCl, 1 mM MgCl2, 0.05% NP40, 2 mM DTT, 5% glycerol, 25 ug/ml BSA, room temp 30 min; EMSA: 50 mM Tris pH 7.5, 50 mM NaCl, 4% Ficoll PM400, 0.05% NP40, 2 mM DTT, 0-18 uM protein, room temp 30 min, gel at 4 C"}}, "note": "Numbering of substitutions follows the chain as printed."}
{"binder": "B1", "values": [{"measurement": "Kd", "setting": "[1]", "result": "27000 ± 9000", "unit": "nM"}, {"measurement": "Kd", "setting": "[2]", "result": "500 ± 200", "unit": "nM"}, {"measurement": "Kd", "setting": "[3]", "result": "3000 ± 1000", "unit": "nM"}, {"measurement": "Kd", "setting": "[4]", "result": "3000 ± 1000", "unit": "nM"}, {"measurement": "Kd", "setting": "[5]", "result": "900 ± 500", "unit": "nM"}, {"measurement": "Kd", "setting": "[6]", "result": "600 ± 100", "unit": "nM"}]}
